# The RNAGym collection of RNA variant scans (doi:10.1093/molbev/msab373)
# B1: Azoarcus group I ribozyme (parent)
# chain: GUGCCUUGCGCCGGGAAACCACGCAAGGGAUGGUGUCAAAUUCGGCGAAACCUAAGCGCCCGCCCGGGCGUAUGGCAACGCCGAGCCAAGCUUCGGCGCCUGCGCCGAUGAAGGUGUAGAGACUAGACGGCACCCACCUAAGGCAAACGCUAUGGUGAAGGCAUAGUCCAGGGAGUGGCGAAAGUCACACAAACCGG
# Variants of: B1
# Assay: reverse-splicing fitness (ratio to wild type); higher = more active; in vitro selection; Mg2+ level not given
# Procedure, shortened: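 An in vitro group I ribozyme library with randomized positions was T7-transcribed and gel-purified. In triplicate, 10 pmol RNA in EPPS pH 7.5 was reacted with 50 pmoles of a 30-nt RNA substrate for 1 h at 37 °C across several added MgCl2 levels (1–48 mM), then stopped with EDTA. Products were reverse transcribed from a substrate-complementary primer, PCR-amplified and sequenced (HiSeq 4000). Fitness is a variant's read proportion after selection over that before, normalised to wild type.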
row,Variant,reverse-splicing fitness
1,C82A A120C C150G C169A U176A,0.0126
2,C82A A120C C150G C169A U176C,0.0129
3,C82A A120G A145C C150U C169A,0.00915
4,C82A A120G A145C C150U C169U,0.00958
5,C82A A120G A145C C150U C169G,0.00984
6,C82A A120U A145C C150A,0.00898
7,C82A A120G C150A C169G U176C,0.0267
8,C82A A120G C150A C169G U176G,0.00524
9,C82A A120G C150A C169G U176A,0.0195
10,C82A A120G A145G C150G C169U U176A,0.0129
11,C82A A120G A145G C150G C169U U176C,0.0123
12,C82A A120G A145G C150G C169U U176G,0.00741
13,C82A A120C C150A C169G,0.0106
14,C82A A120C C150A C169U,0.0147
15,C82A A120C C150A C169A,0.0115
16,C82A A120G A145C C169A U176G,0.00327
17,C82A A120G A145C C169A U176C,0.00741
18,C82A A120G A145C C169A U176A,0.00955
19,C82A A120U A145C C150A C169A U176A,0.00185
20,C82A A120U A145C C150A C169A U176C,0.00238
21,C82A A120U A145C C150A C169A U176G,0.00198

row,Variant,reverse-splicing fitness
1,C82A A120G A145G C150U C169U U176C,0.0172
2,C82A A120G A145G C150U C169U U176A,0.0182
3,C82A A120G A145G C150U C169U U176G,0.00463
4,C82A A120C C150A U176C,0.0248
5,C82A A120C C150A U176A,0.0151
6,C82A A120C C150A U176G,0.00826
7,C82A A120C C150A,0.0224
8,C82A A120C C150G,0.0157
9,C82A A120C C150U,0.0789
10,C82A A120G A145G C150A C169A U176G,0.00558
11,C82A A120G A145G C150A C169A U176C,0.023
12,C82A A120G A145G C150A C169A U176A,0.0183
13,C82A A120C C150U C169G U176A,0.0152
14,C82A A120C C150U C169G U176G,0.00493
15,C82A A120C C150U C169G U176C,0.0201
16,C82A A120C C150G U176C,0.0106
17,C82A A120C C150G U176G,0.00347
18,C82A A120C C150G U176A,0.00712
19,C82A A120G A145G C150G C169G U176G,0.00587
20,C82A A120G A145G C150G C169G U176C,0.0124
21,C82A A120G A145G C150G C169G U176A,0.0097

row,Variant,reverse-splicing fitness
1,C82A A120C C169A U176A,0.0198
2,C82A A120C C169A U176C,0.0229
3,C82A A120C C169A U176G,0.00458
4,C82A A120G A145G C169A U176G,0.00382
5,C82A A120G A145G C169A U176A,0.0208
6,C82A A120G A145G C169A U176C,0.0273
7,C82A A120G A145U U176C,0.0146
8,C82A A120G A145U U176G,0.00426
9,C82A A120G A145U U176A,0.0131
10,C82A A120C C169G U176A,0.0193
11,C82A A120C C169G U176G,0.00508
12,C82A A120C C169G U176C,0.0259
13,C82A A120G A145C U176G,0.00396
14,C82A A120G A145C U176C,0.0111
15,C82A A120G A145C U176A,0.011
16,C82A A120C U176G,0.00961
17,C82A A120C U176A,0.04
18,C82A A120C U176C,0.056
19,C82A A120G C150A U176C,0.0171
20,C82A A120G C150A U176A,0.0118
21,C82A A120G C150A U176G,0.00837

row,Variant,reverse-splicing fitness
1,C82A A120G A145G,0.0225
2,C82A A120G A145U,0.0219
3,C82A A120G A145C,0.0202
4,C82A A120C A145U C169U U176C,0.0114
5,C82A A120C A145U C169U U176A,0.0169
6,C82A A120C A145U C169U U176G,0.0041
7,C82A A120C C150G C169G U176G,0.00605
8,C82A A120C C150G C169G U176A,0.00779
9,C82A A120C C150G C169G U176C,0.00601
10,C82A A120G C150G C169G,0.00786
11,C82A A120G C150G C169U,0.0095
12,C82A A120G C150G C169A,0.00866
13,C82A A120G C150G,0.00747
14,C82A A120G C150U,0.0158
15,C82A A120G C150A,0.0107
16,C82A A120G A145G C150U C169A U176G,0.00535
17,C82A A120G A145G C150U C169A U176A,0.016
18,C82A A120G A145G C150U C169A U176C,0.0196
19,C82A A120G A145G C150A C169G U176A,0.018
20,C82A A120G A145G C150A C169G U176C,0.0247
21,C82A A120G A145G C150A C169G U176G,0.00523
